Stoichiometry N, koff and kon data for one substance are collected here from PMC4882459.

Assay [1] addresses ES-62 (Acanthocheilonema viteae). The assay can be described thus: SEC; HPLC on a G4000SW column in HBSC buffer (1 mM CaCl2); ES-62 injected, with or without CRP at 20 ug/ml in the column buffer, or with EDTA. (In gel filtration, larger molecules generally elute earlier.)
In assay [2] the target is Biotinylated C-reactive protein (human) (UniProt P02741). The assay is described as follows: SPR; Biacore 3000; biotinylated CRP or SAP captured to 200 RU on streptavidin on a CM5 chip; ES-62 flowed at 30 ul/min in HBS pH 7.4 with 1 mM CaCl2 and 0.005% P20; regeneration with 3 mM EDTA; ka and kd calculated separately.
Biotinylated C-reactive protein (human), sequence (P02741 19-224): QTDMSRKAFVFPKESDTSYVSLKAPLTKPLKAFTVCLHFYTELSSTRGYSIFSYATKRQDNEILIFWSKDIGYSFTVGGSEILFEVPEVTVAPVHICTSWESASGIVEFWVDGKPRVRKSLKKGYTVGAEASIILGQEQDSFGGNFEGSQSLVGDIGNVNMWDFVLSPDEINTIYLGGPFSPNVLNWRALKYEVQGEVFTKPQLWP

As a reminder, the stoichiometry N is a count of units in the complex or per binding partner. Broadly, the koff is the first-order rate constant of dissociation. The kon is a measure of how fast the partners come together. In assay [1], ES-62 (natural protein) displayed a stoichiometry N of 4. In addition, in assay [2], the koff was 0.0013 to 0.0014 s⁻¹ and the association rate constant (kon) is 100000 to 1e+06 M⁻¹ s⁻¹.
